The target in the test is T1, Recombinant Human PD-L1-TVMV-His, hPDL1(19-239)-TVMV-His (human, UniProt Q9NZQ7 19-239).
T1 construct: also called PD-L1-His; soluble PD-L1
As to the kind of experiment: HTRF competition of PD-1-Ig binding to PD-L1-His; grade, legend paragraph 524: A=0.10-10 µM. How it is done: Homogenous Time-Resolved Fluorescence (HTRF) Assays of Binding of Soluble PD-1 to Soluble PD-L1. Soluble PD-1 and soluble PD-L1 refers to proteins with carboxyl-end truncations that remove the transmembrane-spanning regions and are fused to heterologous sequences, specifically the Fc portion of the human immunoglobuling G sequence (Ig) or the hexahistidine epitope tag (His). All binding studies were performed in an HTRF assay buffer consisting of dPBS supplemented with 0.1% (w/v) bovine serum albumin and 0.05% (v/v) Tween-20. For the PD-1-Ig/PD-L1-His binding assay, inhibitors were pre-incubated with PD-L1-His (10 nM final) for 15 m in 4 μl of assay buffer, followed by addition of PD-1-Ig (20 nM final) in 1 μl of assay buffer and further incubation for 15m. PD-L1 fusion proteins from either human, cynomologous macaques, mouse, or other species were used. HTRF detection was achieved using europium crypate-labeled anti-Ig monoclonal antibody (1 nM final) and allophycocyanin (APC) labeled anti-His monoclonal antibody (20 nM final). Antibodies were diluted in HTRF detection buffer and 5 μl was dispensed on top of binding reaction. The reaction was allowed to equilibrate for 30 minutes and signal (665 nm/620 nm ratio) was obtained using an EnVision fluorometer. […]

T1 sequence (Q9NZQ7 other isoform, or with tags, fused parts or gaps limits assumed): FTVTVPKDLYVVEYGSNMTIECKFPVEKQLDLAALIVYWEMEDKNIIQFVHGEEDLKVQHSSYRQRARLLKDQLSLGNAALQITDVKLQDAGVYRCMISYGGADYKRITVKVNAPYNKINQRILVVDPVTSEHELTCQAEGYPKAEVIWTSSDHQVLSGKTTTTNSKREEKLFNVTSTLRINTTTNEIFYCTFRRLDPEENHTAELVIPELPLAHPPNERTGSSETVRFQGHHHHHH

B1: Example 1001 (peptide)
peptide: FANPHLXWSWXXRCG
modifications: not fully specified; N-terminal acetyl group (from chloroacetyl capping) joined as a thioether to the side chain of Cys 14 (macrocycle); N-methyl-Ala at 2; X at 7 = residue from 'Fmoc-Cyclopenty-Gly-OH'; X at 11 and 12 = N-methyl-norleucine; C-terminal amide (Rink resin)
notes: the structure itself is only a drawing (CHEM-US-00006)
As usually defined, the IC50 is the concentration that inhibits the measured activity by half. For the molecule B1, the IC50 lay within 0.1 to 10 µM.
